Experimental data taken from patent publication US20150044237A1 (CENTRE NATIONAL DE LA RECHERCHE SCIENTIFIQUE, published 2015).

How the values were obtained:
[1] = molecular target: T1, Fas (CD95/APO-1) on Jurkat cells (human, UniProt P25445 26-335); assay: cell-based or functional assay
T1 sequence (looked up): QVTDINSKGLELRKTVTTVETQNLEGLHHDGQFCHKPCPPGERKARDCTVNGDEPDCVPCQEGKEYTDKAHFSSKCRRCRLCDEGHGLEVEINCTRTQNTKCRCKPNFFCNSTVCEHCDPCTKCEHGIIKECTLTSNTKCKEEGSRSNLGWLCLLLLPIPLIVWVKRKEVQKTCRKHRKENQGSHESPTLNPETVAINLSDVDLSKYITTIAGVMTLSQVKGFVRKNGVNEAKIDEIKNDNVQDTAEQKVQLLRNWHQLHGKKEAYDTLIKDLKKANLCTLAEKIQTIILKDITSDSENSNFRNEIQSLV

CD28 on human cells = molecular target: T2, CD28 on human cells (human, UniProt P10747 19-220); assay: inferred from inhibition of cell death by anti-CD28 blocking antibody on JKCD28high cells
T2 construct: whole, on cells; also called CD28 receptor
Description: FIG. 14: Effect of the pFasL and CD80-pFasL chimeras on the JKCD28low, JKCD28high and JKCD28delta cell lines. Panel A: membrane expression of Fas and CD28 on the three cell lines. The cells were stained with the indicated antibodies, or with an isotype-matched negative control antibody (shaded histograms) then analysed by flow cytometry. Panel B: the apoptotic activity of the pFasL and CD80-pFasL chimeras was tested against the three cell lines (JKCD28 low: empty triangles; JKCD28high: filled triangles; JKCD28delta: squares) at a range of concentrations, measured in the FasL ELISA. Cell death was estimated by the MTT viability assay. Mean and sd from three distinct experiments. Panel C: the pFasL and CD80-pFasL chimeras were used at a non-saturating concentration that triggers a suboptimal cell death. The JKCD28low and JKCD28high cell lines were pre-incubated without (no antibody) or with an isotype-matched control antibody at 10 μg/mL or with the CD28.2 clone of anti-CD28 blocking antibody at 10, 3 or 1 μg/mL. Cell death was measured using the MTT cell viability assay. Mean and sd from three distinct experiments.
To analyse this possibility, the inventors conducted experiments where CD28 was blocked using a neutralising antibody. […]

C50 against pFasL, JKCD28delta cell line [1]: 10 fold increase against pFasL
C50 against pFasL, JKCD28high cell line [1]: 2.5 fold decrease against pFasL
C50 against pFasL, JKCD28low cell line [1]: 17 fold decrease against pFasL
B1: CD80-pFasL (other)
chain: VIHVTKEVKEVATLSCGHNVSVEELAQTRIYWQKEKKMVLTMMSGDMNIWPEYKNRTIFDITNNLSIVILALRPSDEGTYECVVLKYEKDAFKREHLAEVTLSVKADFPTPSISDFEIPTSNIRRIICSTSGGFPEPHLSWLENGEELNAINTTVSQDPETELYAVSSKLDFNMTTNHSFMCLIKYGHLRVNQTFNWNTTKQEHFPSSIPDSQTKVFPQDKVILVGSDITFCCVSQEKVLSALIGHTNCPLIHLDGENVAIKIRNISVSASSGTNVVFTTEDNIFGTVISRALQKELAELRESTSQMHTASSLEKQIGHPSPPPEKKELRKVAHLTGKSNSRSMPLEWEDTYGIVLLSGVKYKKGGLVINETGLYFVYSKVYFRGQSCNNLPLSHKVYMRNSKYPQDLVMMEGKMMSYCTTGQMWARSSYLGAVFNLTSADHLYVNVSELSLVNFEESQTFFGLYKL
notes: Polymeric, produced in HEK 293T cells; also called CD80IgFasL; CD80-IgFasL polymeric chimera
binding result (CD28 on human cells): binds
